Assay results reported in patent publication US20240287172A1 (SCIRHOM, published 2024).

Assays:
hiR2-FL-L539A-T7 = target: T1, hiR2-FL-L539A-T7 (human, UniProt Q6PJF5 1-856); assay: FACS on MEF-DKO cells expressing the variant, 3 µg/ml antibody
T1 construct: on MEF-DKO cells
T1 sequence: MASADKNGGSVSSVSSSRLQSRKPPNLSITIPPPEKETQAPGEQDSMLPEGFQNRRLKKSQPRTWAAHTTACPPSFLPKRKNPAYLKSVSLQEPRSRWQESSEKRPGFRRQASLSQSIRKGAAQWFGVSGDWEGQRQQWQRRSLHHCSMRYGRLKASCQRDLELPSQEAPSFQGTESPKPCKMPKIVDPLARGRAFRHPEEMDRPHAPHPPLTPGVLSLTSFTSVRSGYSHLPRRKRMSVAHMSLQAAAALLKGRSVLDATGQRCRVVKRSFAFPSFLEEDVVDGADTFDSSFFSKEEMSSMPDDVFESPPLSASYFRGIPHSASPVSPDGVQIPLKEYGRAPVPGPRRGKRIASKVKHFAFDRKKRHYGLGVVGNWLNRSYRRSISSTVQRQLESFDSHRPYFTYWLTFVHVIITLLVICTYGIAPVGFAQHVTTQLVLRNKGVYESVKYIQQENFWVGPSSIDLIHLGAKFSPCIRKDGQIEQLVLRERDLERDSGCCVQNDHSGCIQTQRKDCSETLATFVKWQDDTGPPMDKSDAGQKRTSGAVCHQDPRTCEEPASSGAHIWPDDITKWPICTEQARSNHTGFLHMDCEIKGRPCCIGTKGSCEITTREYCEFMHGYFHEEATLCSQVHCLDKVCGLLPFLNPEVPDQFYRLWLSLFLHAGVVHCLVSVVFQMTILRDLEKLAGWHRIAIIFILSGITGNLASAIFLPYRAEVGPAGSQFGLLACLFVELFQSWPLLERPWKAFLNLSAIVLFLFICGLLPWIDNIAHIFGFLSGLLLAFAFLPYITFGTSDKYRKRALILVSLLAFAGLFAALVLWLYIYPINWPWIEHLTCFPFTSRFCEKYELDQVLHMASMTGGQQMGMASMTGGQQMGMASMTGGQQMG
Description: (§1) To pellet cells and remove supernatants, the plates were centrifuged at 1,500 rpm and 4° C. for 3 minutes. For primary staining, cells were resuspended in 100 μl per well of either FACS buffer alone (controls) or the purified antibodies 3, 5, 16, 22, 34, 42, 43, 44, 48, and 50 of the invention at 3 μg/ml in FACS buffer and incubated on ice for 1 hour. Afterwards, plates were centrifuged at 1,500 rpm and 4° C. for 3 minutes and washed twice with 200 μl per well of FACS buffer. For secondary staining, cells were spun down and resuspended in 100 μl per well of PE-conjugated goat anti-mouse IgG F(ab′)2 detection fragment (Dianova, Germany) diluted 1:100 in FACS buffer. Protected from light, the cell suspensions were incubated on ice for 1 hour. Plates were then centrifuged at 1,500 rpm and 4° C. for 3 minutes and washed three times with 200 μl per well of FACS buffer. Finally, cells were resuspended in 150 μl per well of FACS buffer and analyzed using a BD Accuri™ C6 Plus flow cytometer (Becton Dickinson, Germany).

hiR2-FL-S561A-T7 = target: T2, hiR2-FL-S561A-T7 (human, UniProt Q6PJF5 1-856); assay: as above
T2 sequence: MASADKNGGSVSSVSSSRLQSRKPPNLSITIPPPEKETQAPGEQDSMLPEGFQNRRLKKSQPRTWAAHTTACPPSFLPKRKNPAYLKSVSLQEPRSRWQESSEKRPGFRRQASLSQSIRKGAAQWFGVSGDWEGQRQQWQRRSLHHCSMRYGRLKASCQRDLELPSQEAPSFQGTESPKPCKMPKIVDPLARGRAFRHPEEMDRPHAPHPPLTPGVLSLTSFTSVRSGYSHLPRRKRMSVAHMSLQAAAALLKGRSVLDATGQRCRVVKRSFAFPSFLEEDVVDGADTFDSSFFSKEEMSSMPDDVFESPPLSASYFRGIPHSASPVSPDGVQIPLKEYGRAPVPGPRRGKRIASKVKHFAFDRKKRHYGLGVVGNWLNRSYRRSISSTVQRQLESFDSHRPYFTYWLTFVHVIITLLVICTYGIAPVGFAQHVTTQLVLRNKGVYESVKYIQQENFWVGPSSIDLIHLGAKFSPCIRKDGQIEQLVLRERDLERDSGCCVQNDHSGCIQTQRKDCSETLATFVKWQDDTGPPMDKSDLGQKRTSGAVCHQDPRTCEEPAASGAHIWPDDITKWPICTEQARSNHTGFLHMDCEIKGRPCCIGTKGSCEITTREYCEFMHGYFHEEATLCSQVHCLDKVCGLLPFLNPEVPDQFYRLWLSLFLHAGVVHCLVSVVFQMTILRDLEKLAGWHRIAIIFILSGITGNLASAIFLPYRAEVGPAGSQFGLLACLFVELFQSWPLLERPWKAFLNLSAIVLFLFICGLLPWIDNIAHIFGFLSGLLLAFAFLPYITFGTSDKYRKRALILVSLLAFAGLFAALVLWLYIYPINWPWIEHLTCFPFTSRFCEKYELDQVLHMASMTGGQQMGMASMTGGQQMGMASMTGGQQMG
Description: as §1

Binder | loss of binding vs wild type (hiR2-FL-L539A-T7) | loss of binding vs wild type (hiR2-FL-S561A-T7)
antibody 50 (antibody, V domains shown, mouse IgG, kappa light chain; also called clone #50; purified antibody 50) VH: QVQLQQSGAELVRPGASVKVSCKASGYAFSNYLIEWVKQRPGQGLEWIGVINPGSGFTKYNEKFKGKATLTADKSSSTAYMQLSSLTSEDSAVYFCARGLYRAMDYWGQGTSVTVSS VL: DIQMTQSPASQSASLGESVTITCLASQTIGTWLAWYQQKPGKSPQLLIYAAASLADGVPSRFSGGGSGTKFSFKISSLQAEDFVNYYCQQIYSTPYTFGGGTKLEIK | ≥ 30% | 
antibody 5 (antibody, V domains shown, mouse IgG, kappa light chain; also called clone #5; purified antibody 5) VH: QVTLKESGPGILQPSQTLSLTCSFSGFSLSTFGMGVGWIRQPSGKGLEWLAHIWWDDEKYYNSALKSRLTISKATSKNQAFLKIANVDTADTATYYCARISNYGSNYWYFNVWGTGTTVTVSS VL: QVVLTQSPALMSASPGEKVTMTCSAGSSVSCMYWYQQKPGSSPRVLIYDTSNLASGVPARFTGSGSGTSYSLTISRMEAEDAASYYCQQWNSYPLTFGAGTKLELK | ≥ 60% | ≥ 30%
antibody 42 (antibody, V domains shown, mouse IgG, kappa light chain; also called clone #42; purified antibody 42) VH: QVTLKESGPGILQPSQTLSLTCSLSGFSLSTFGRGVGWIRQPSGKGLEWLAHIWWDDEKYYNPALKSRLTISKDTSKNQVFLRIANVDTADTATYYCARIQNYGSNYWYFDVWGTGTTVTVSS VL: LIVLTQSPAIMSASPGEKVTMTCGATSRISYMFWYQQKPGSSPRVLIYDTSNLASGVPVRFSGSGSGTSYSLTISRVEAEDVATYYCQQWNSYPLTFGAGTKLELK | ≥ 60% | ≥ 30%
antibody 43 (antibody, V domains shown, mouse IgG, kappa light chain; also called clone #43; purified antibody 43) VH: QVALKESGPGILQPSQTLSLTCSFSGFSLSTFGMGVGWIRQSSGKGLEWLANIWWDDDKYYNPALKSRLTISKDASKNQAFLKIANVDTADTATYYCARIGNYGSNYWYFDVWGTGTTVTVSS VL: QIVLTQSPAIMSASPGERVTMTCSANSRISYMYWYQQKPGSSPRLLIYDTSNLASGVPVRFSGSGSGTSYSLTISRMEAEDAATYNCQQWSSYPLTFGAGTKLELK | ≥ 95% | ≥ 30%
antibody 44 (antibody, V domains shown, mouse IgG, kappa light chain; also called clone #44; purified antibody 44) VH: QVTLKESGPGILQPSQTLSLTCSFSGFSLSTFGMGVGWIRQPSEKGLEWLAHIWWDDDKYYNPALKSRLTISKDTSKNQIFLKITNVDTAETATYYCSRIGNYGSNYWYFDVWGTGTTVTVSS VL: QIVLTQSPAVMSASPGEKVTMTCTASSSVYYMYWYQQTPGSSPRLLIYDTSNLASGVPVRFSGSGSGTSYSLTISRMEAEDAATYYCQQWNTYPLTFGAGTKLELK | ≥ 60% | ≥ 30%
antibody 22 (antibody, V domains shown, mouse IgG, kappa light chain; also called clone #22; purified antibody 22) VH: QVTLKESGPGILQPSQTLSLTCSFSGFSLSTFGMGVGWIRQPSGKGLEWLAHIWWDDEKYYNSALKSRLTISKATSKNQVFLKIANVDTADTATYYCARISNYGSNYWYFNVWGTGTTVTVSS VL: QVVLTQSPALMSASPGEKVTMTCSAGSSVSYMYWYQQKPGSSPRVLIYDTSNLASGVPARFTGSGSGTSYSLTISRMEAEDAATYYCQQWNSYPLTFGAGTKLELK | ≥ 95% | ≥ 30%
antibody 34 (antibody, V domains shown, mouse IgG, kappa light chain; also called clone #34; purified antibody 34) VH: QVTLKESGPGILQPSQTLSLTCSFSGFSLSTFSLGVGWIRQSSGKGLEWLAHIWWDDEKYYNPALKSRLTISKDTSKNQVFLKIANVDAADTATYYCARAYYSKSYYALDYWGQGTSVTVSS VL: DIQMTQSPSSLSASLGERVSLTCRASQEISGYLSWLQQKPDGTIKRLIYAASTLDSGVPKRFSGSRSGSDYSLAISSLESEDFADYYCLQYANFPFTFGSGTKLEIK | ≥ 60% | ≥ 30%
antibody 3 (antibody, V domains shown, mouse IgG, kappa light chain; also called clone #3; purified antibody 3) VH: QVTLKESGPGILQPSQTLSLTCSFSGFSLTTFAMGIGWVRQPSGKGLEWLAHIWWDGEKYNNPVLKSRLTISKDTSKNQVFLRIANVDTPDTATYYCARISSIYYIIDNWGQGTSVTVSS VL: DIVLTQSPATLSVTPGHSVSLSCRASQSISNNLHWYQKKSHESPRLLIKYVSQSISGIPSRFSGSGSGTDFTLSINSVETEDFGMYFCQQSYNWPLTFGAGTKLELK | ≥ 30% | ≥ 30%
